Reference: US20240287184A1 (GUANGDONG FAPON BIOPHARMA, published 2024)

Key:
[1] = target: T1, human CD28-hFc (human, UniProt P10747 19-152); experiment: ELISA, antigen coated at 1 µg/mL
T1 construct: Commercial protein; also called CD28 (ACRO); not shown: human Fc (hFc)
Text: (§1) A horse radish peroxidase (HRP)-coupled anti-human IgG (F) was used as the secondary antibody. After developed with TMB and terminated, it was read for an OD450 value with a microplate reader.

[2] = target: T2, human ICOS-hFc (human, UniProt Q9Y6W8 21-140); experiment: ELISA, antigen coated at 1 µg/mL
T2 construct: Commercial protein; also called ICOS (ACRO); not shown: human Fc (hFc)
T2 sequence (looked up): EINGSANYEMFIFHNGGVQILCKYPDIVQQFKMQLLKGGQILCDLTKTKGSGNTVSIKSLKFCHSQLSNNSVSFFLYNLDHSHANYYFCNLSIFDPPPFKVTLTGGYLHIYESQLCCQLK
Text: as §1

[3] = target: T3, human CTLA4-hFc (human, UniProt P16410 37-162, limits assumed); experiment: ELISA, antigen coated at 1 µg/mL
T3 construct: Commercial protein; also called CTLA-4 (ACRO); not shown: human Fc (hFc)
Text: as §1

[4] = target: T4, mouse PD1 expressed on the surface of CHO cells (CHO-mousePD1) (mouse, UniProt Q02242 25-288); experiment: flow cytometry on CHO-mousePD1 cells
T4 construct: whole, on cells; also called CHO-mPD1
T4 sequence (looked up): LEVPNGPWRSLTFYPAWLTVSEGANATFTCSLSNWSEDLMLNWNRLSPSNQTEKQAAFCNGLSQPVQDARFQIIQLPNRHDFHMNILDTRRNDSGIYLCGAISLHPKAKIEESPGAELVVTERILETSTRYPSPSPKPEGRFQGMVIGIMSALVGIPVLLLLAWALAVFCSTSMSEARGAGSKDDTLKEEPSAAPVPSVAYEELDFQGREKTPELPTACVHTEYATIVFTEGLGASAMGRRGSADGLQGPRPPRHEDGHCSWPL
Method: (§2) In order to evaluate the binding of the anti-PD-1 mouse monoclonal antibody to the CHO-h PD1, 2×10⁵ CHO-hPD1 cells and an anti-PD-1 mouse monoclonal antibody diluted in concentration gradient (with an initial concentration of 10 μg/mL, and diluted in 3-fold gradient) were added into a 96-well plate, and incubated at 4° C. for 30 minutes. The cells were washed once with a buffer (PBS containing 3% BSA) and then added with a PE-labeled anti-mouse IgG (Fc) Ab (Biolegend) fluorescent secondary antibody, incubated at 4° C. for 30 minutes, then washed once with the buffer and subsequently resuspended in PBS. Thereafter, the cell suspension was subjected to flow cytometric analysis by CytoFlex (Beckman flow cytometer), and the quantity of the antibody bound to the cells was measured according to the mean fluorescence intensity (MFI) of the staining. The same method was used for evaluating the binding of the anti-PD-1 mouse monoclonal antibody to the CHO-cyno cells and the CHO-mousePD1 (sometimes abbreviated as “CHO-mPD1” in the application) cells.

[5] = target: T5, recombinant human PD-1 expressed on the surface of CHO cells (CHO-hPD1) (human, UniProt Q15116 25-288); experiment: flow cytometry on CHO-hPD1 cells
T5 construct: whole, on cells; also called CHO-PD1; hPD1-transfected CHO cells
Method: as §2

[6] = target: T6, monkey PD1 expressed on the surface of CHO cells (CHO-cynoPD1) (monkey); experiment: flow cytometry on CHO-cynoPD1 cells
T6 construct: whole, on cells
Method: as §2

[7] = target: T7, PD1 naturally expressed by activated human lymphocytes (PHA-activated PBMC) (human, UniProt Q15116 25-288); experiment: flow cytometry on PHA-activated human PBMC
T7 construct: whole, on cells; Also used as the target for the mixed lymphocyte reaction (human T cells)
Method: After being obtained from fresh human peripheral blood by gradient centrifugation of lymphatic separation medium, the PBMCs were adjusted to the density of 1×10⁶ cells/mL and inoculated into T75, and meanwhile added with PHA-L (Sigma) at a final concentration of 1 μg/mL to stimulate the proliferation of lymphocytes. After being allowed to stand in an incubator at 37° C. and 5% CO₂ for 3 days, the cell suspension was taken out and centrifuged. […] The cells were washed once with the buffer, and added with a PE-labeled goat anti-human IgG fluorescent antibody (Biolegend), and incubated at 4° C. for 30 minutes.

[8] = target: T8, human PD-1-hFc (human, UniProt Q15116 25-167); experiment: ELISA, antigen coated at 1 µg/mL, antibody 10 µg/mL
T8 construct: Commercial protein; also called PD-1 (ACRO); not shown: human Fc (hFc)
Text: (§3) The anti-PD-1 mouse monoclonal antibody was allowed to bind with four different member proteins of CD28 family to verify the specificity of the antibody in binding to PD-1. […] A horse radish peroxidase (HRP)-coupled anti-mouse IgG(Sigma) was used as the secondary antibody. After developed with TMB and terminated, it was read for an OD450 value with a microplate reader.

[9] = target: T1, human CD28-hFc; experiment: as above
Text: as §3

[10] = target: T2, human ICOS-hFc; experiment: as above
Text: as §3

[11] = target: T3, human CTLA4-hFc; experiment: as above
Text: as §3

[12] = target: T9, PD-1-his (ACRO) recombinant protein (UniProt Q15116 25-167); experiment: BLI (ForteBio Octet), PD-1-his loaded on sensor, antibody in solution
T9 construct: Commercial protein; not shown: his tag
Method: Finally, analysis was conducted by utilizing a kinetic model.

[13] = target: T5, recombinant human PD-1 expressed on the …; experiment: flow cytometry, blocking of PD-L1-hFc binding to CHO-hPD1, mode 1 (ligand first)
Method: (§4) The ability of the anti-PD-1 mouse monoclonal antibody to block the binding of the ligand to a PD-1 stably expressed on the surface of transfected CHO cells was analyzed by a flow cytometer.
(§5) The cells were centrifuged at 300 g for 5 minutes, washed once with the buffer, added with a PE-labeled goat anti-human IgG fluorescent antibody (Biolegend), and incubated at 4° C. for 30 minutes. The cells were centrifuged and washed once, then resuspended in PBS, and subsequently analyzed by a CytoFlex flow cytometer to detect the quantity of the ligand protein bound to the cells, and calculate the IC₅₀ value of the PD-1 antibody in blocking the binding.

[14] = target: T5, recombinant human PD-1 expressed on the …; experiment: flow cytometry, blocking of PD-L2-hFc binding to CHO-hPD1, mode 1 (ligand first)
Method: as §4, §5

[15] = target: T5, recombinant human PD-1 expressed on the …; experiment: flow cytometry, blocking of PD-L1-hFc binding to CHO-hPD1, mode 2 (antibody first)
Method: as §4, §5

[16] = target: T5, recombinant human PD-1 expressed on the …; experiment: flow cytometry, blocking of PD-L2-hFc binding to CHO-hPD1, mode 2 (antibody first)
Method: as §4, §5

T5 sequence (Q15116 25-288): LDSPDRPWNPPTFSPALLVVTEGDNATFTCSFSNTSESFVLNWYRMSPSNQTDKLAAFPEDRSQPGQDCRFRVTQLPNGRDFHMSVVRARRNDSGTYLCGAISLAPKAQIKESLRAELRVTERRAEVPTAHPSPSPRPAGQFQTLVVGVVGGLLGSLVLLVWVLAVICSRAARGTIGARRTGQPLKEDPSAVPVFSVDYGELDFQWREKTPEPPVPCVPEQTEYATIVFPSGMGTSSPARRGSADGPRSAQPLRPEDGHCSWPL
T9 sequence (Q15116 25-167 limits assumed): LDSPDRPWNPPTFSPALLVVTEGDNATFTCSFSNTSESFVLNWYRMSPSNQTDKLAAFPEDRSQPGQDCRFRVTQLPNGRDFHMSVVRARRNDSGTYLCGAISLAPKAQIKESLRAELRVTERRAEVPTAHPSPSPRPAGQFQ
T3 sequence (P16410 37-162 limits assumed): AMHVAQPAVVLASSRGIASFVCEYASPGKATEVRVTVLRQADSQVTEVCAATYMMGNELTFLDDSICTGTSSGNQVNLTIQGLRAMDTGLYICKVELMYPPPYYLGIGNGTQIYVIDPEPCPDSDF
T7 sequence (Q15116 25-288): as the sequence (Q15116 25-288) above
T8 sequence (Q15116 25-167 limits assumed): as the sequence (Q15116 25-167 limits assumed) above

B1: anti-PD-1 mouse monoclonal antibody PD-1-112-C2 (antibody, V domains shown)
VH: QVQLQQPGAELVKPGASVKLSCKASGYTFTTYYMYWVKQRPGQGLEWIGGINPSNGGTNFNEKFKSKATLTVDKSSSTAYMQLSSLTSEDSAVYYCTRRDSNYDGGFDYWGQGTTLTVSS
VL: DIVLTQSPASLAVSLGQRATISCRASKSVSTSGYSYMHWYQQKPGQPPKLLIYLAYHLESGVPARFSGSGSGTDFTLNIHPVEEEDAATYYCQHSWELPITFGSGTKLEIKR
notes: Mouse monoclonal antibody from a hybridoma
binding result [1]: no binding (tested: 10 µg/mL) | binding result [2]: no binding (tested: 10 µg/mL) | binding result [3]: no binding (tested: 10 µg/mL) | binding result [4]: no binding (tested: initial concentration of 10 µg/mL) | EC50 [5]: 0.739 nM | EC50 [6]: 0.463 nM | EC50 [7]: 0.109 nM | OD450 [8]: 2.12 OD450 | OD450 [9]: 0.0625 OD450 | OD450 [10]: 0.062 OD450 | OD450 [11]: 0.131 OD450 | Kd [12]: 0.0435 nM | koff [12]: 3.18e-05 s⁻¹ | kon [12]: 732000 M⁻¹ s⁻¹ | IC50 [13]: 2.57 nM | IC50 [14]: 4.61 nM | IC50 [15]: 1.55 nM | IC50 [16]: 3.73 nM
